Read-outs that look alike come from different tables or passages of the source. Ends that are not written are not given here.

This is an account of results in article PMC9258321 (2022).

The target of test [1] is Kelch domain of Keap1. The experiment in a line: SPR. (In SPR one partner is held on a chip, and binding of the other changes the refractive index at the surface.)
Test [2] deals with Kelch domain of Keap1. The experiment in a line: SPR. This is another data set of the same source.

Chain of Kelch domain of Keap1 (chain, as listed by the source): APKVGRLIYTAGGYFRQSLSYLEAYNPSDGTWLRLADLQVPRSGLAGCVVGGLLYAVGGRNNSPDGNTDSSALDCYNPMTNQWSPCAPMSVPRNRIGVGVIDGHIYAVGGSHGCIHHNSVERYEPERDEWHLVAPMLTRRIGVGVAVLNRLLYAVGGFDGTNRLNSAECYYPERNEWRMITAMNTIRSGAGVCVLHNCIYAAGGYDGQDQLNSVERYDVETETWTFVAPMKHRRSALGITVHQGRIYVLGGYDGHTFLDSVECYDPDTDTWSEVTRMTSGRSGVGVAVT

B1: drp3, minor oxidized product (peptide)
chain: GCPPCASGCSPETGEFCWREDDCPPC
modifications: disulfide (positions not given here); also: oxidized (disulfides), pairing of this isomer not given here
Usually Kd stands for a measure of binding affinity in units of concentration. Read a high Kd as a looser complex. As for B1, binding in test [1] was characterised by a dissociation constant (Kd) of 415 nM.

B2: drp3-a (peptide)
chain: GCPPCASGCSPETGEFCWREDDCPPC
modifications: disulfide (positions not given here); not fully specified
The molecule B2 registered a Kd in test [2] of 277 nM.
